Results taken from paper PMC6271940.

T1: angiotensin I-converting enzyme (UniProt P12822)
T1 sequence: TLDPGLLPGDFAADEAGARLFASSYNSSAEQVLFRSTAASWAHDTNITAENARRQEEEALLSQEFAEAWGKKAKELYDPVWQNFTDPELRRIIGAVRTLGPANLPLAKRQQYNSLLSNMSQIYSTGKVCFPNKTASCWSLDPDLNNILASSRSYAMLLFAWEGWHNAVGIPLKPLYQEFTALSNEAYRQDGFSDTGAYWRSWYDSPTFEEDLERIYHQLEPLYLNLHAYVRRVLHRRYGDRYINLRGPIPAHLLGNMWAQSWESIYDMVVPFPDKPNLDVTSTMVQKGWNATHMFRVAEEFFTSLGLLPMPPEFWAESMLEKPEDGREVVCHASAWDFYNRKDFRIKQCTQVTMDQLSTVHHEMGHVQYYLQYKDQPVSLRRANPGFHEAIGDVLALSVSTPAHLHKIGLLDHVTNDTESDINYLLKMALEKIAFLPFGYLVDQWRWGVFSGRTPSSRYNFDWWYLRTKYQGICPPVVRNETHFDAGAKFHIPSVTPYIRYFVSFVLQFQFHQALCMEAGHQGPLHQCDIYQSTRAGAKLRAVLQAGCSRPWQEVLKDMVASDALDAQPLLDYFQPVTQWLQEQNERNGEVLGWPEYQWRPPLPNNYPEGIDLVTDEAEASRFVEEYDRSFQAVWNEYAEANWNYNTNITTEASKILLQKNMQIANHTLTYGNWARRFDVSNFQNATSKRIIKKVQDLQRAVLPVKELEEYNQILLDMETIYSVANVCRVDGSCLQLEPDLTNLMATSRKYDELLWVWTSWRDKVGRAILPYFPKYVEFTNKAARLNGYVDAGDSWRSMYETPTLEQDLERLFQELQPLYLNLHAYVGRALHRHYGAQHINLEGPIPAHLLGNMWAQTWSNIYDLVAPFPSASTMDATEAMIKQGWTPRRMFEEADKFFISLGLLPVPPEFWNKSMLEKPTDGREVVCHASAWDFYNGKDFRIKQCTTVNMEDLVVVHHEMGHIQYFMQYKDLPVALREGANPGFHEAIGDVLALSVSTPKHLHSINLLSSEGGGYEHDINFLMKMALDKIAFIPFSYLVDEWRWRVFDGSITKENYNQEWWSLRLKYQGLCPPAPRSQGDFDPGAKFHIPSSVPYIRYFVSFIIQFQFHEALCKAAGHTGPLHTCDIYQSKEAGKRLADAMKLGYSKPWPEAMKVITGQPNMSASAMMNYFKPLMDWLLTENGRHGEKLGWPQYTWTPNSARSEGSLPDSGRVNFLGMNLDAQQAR

B1: VKCFR (peptide)
peptide: VKCFR

Molecular target: T1, angiotensin I-converting enzyme

Row | Molecule | ACE inhibitory activity (release of hippuric acid from HHL, HPLC at 228 nm; 50 mM borate, 0.3 M NaCl, pH 8.3, 37 °C, 60 min), IC50
1 | VKP (peptide) | 1.3 μM
2 | B1 | 34.5 μM
